Results reported in patent publication US20240294637A1 (DENDROCYTE BIOTECH, published 2024).

What was measured:
[1] = molecular target: CD300f^L4 expressed in CHO cells (isoform of CD300f which includes the amino acid sequence …) (human) (UniProt Q8TDQ1); assay: flow cytometry MFI ratio, CD300f^L4 against CD300f^S4 CHO transfectants
[2] = molecular target: T1, CD300f-Ig fusion protein (recombinant CD300f-Fc protein, Sino Biologicals) (human, UniProt Q8TDQ1 20-156); assay: Bio-Layer Interferometry (BLItz), CD300f-Fc on AHC biosensor, DCR-2 at 8.333, 16.67, 33.33, 66.67 and 0 nM, global 1:1 fit; same value in rows Index 1 to 4; Ka Error 7.087e3
T1 construct: domain: CD300f Ig-like domain; Bought reagent; also called CD300f-Fc recombinant protein; CD300f Ig-like domain; not shown: Ig Fc part (captured by goat anti-human Ig Fc / human IgG Fc capture sensor)
T1 sequence (looked up): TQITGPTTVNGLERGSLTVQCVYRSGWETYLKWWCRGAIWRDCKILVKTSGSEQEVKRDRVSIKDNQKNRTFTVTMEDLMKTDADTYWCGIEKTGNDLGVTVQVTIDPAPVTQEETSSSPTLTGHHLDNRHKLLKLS
Protocol: (§1) DCR-2 was assessed for affinity for CD300f using a BLItz System (Fortebio, Pall Life Sciences). CD300f-Fc recombinant protein was immobilized to a human IgG Fc capture sensor. A five point dilution series of each mAb was tested for association and dissociation. Kinetic rate constants were estimated using BLItz Pro software with a global fitting 1:1 binding model.
(§2) The kinetics of binding of DCR-2 to CD300f-Fc recombinant protein was determined using Bio-Layer Interferometry analysis on a BLItz System (Fortebio, Pall Life Sciences).

[3] = molecular target: T1, CD300f-Ig fusion protein (recombinant …); assay: Bio-Layer Interferometry (BLItz), CD300f-Fc on AHC biosensor, DCR-2 at 8.333, 16.67, 33.33, 66.67 and 0 nM, global 1:1 fit; same value in rows Index 1 to 4; Kd Error 3.58e-5
Protocol: as §1, §2

[4] = molecular target: T2, CD300a on CHO transfectant cell surface (UniProt Q9UGN4 18-299, limits assumed); assay: flow cytometry on CD300a CHO transfectants
T2 construct: whole, on cells; Said to be 'similarly expressed in CHO cells'; also called CD300a transfected cells
T2 sequence (looked up): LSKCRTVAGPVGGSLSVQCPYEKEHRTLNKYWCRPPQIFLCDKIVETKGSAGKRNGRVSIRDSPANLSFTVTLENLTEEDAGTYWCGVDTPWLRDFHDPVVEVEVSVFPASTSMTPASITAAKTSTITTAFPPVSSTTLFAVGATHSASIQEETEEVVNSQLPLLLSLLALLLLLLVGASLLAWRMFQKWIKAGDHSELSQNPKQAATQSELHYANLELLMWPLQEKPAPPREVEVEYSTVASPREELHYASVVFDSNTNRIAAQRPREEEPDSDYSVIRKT

[5] = molecular target: T1, CD300f-Ig fusion protein (recombinant …); assay: Bio-Layer Interferometry (BLItz), CD300f-Fc on AHC biosensor, DCR-2 at 8.333, 16.67, 33.33, 66.67 and 0 nM, global 1:1 fit; same value in rows Index 1 to 4
Protocol: as §1, §2

fold difference in binding compared to CD300f^S4 [1]: < 2 fold
kon [2]: 514000 M⁻¹ s⁻¹
koff [3]: 0.000188 s⁻¹
binding result [4]: no binding
Kd [5]: 366 pM
B1: Monoclonal antibody DCR-2 (antibody, V domains shown)
VH: MESGGGLVQPGGPLKLSCAASGFGFSGSWMSWVRQAPGKGLEWIGQINPDSSTINYTPSLKDKFIISRDNAKNTLYLQINKVRSEDTALYYCARRGFFEGYSAWFAYWGQGTLVTV
VL: ILMTQTPKFLLVSAGDRVTITCKASQSVSNDVAWYQQKPGQSPSLLIYYASNRNTGVPDRFTGSGYETDFTFTISTVQAEDLAVYFCQQDYTSPWTFGGGTKLEIKR
notes: also called mAb DCR-2
